Results on six molecules are retold here after US20080118512A1 (DELENEX THERAPEUTICS, published 2008).

Substitutions are numbered along the chain they refer to.

The target of this assay is T1, human ALK epitope peptide (amino acids 391-406 of the ALK protein) (human).
T1 construct: In the yeast two-hybrid screen it was a C-terminal fusion to LexA; also called Alk LBD peptide; Alk LBD
T1 peptide: GRIGRPDNPFRVALEY
Put plainly: ELISA; the coated antigen is not named on the sheet or in the legend, taken as the ALK epitope peptide. A general note: In an ELISA, binding on a coated surface is turned into a signal by an enzyme label.

B1: 43.2 (scFv)
scFv (VL-linker-VH): QSVLTQPPSVSAAPGQKVTISCSGSTSNIGDNYVSWYQQLPGTAPQLLIYDNTKRPSGIPDRFSGSKSGTSATLGITGLQTGDEADYYCATWDNDKWGVVFGGGTKLEVLGGGGGSGGGGSGGGGSSGGGSEVQLVESGGGLVQPGGSLRLSCAASGFTFSSYAMSWVRQAPGKGLEWVSAIRTNSKEYYADSVKGRFTISRDNSKNTLYLQMNSLRAEDTAVYYCARDAWLDVLSDGFDYWGQGTLVTVSS
notes: One of the seven improved scFvs (group m4); The full chain is assembled from ESBA521 with its VH CDR2 exchanged
B1: the binding result is listed as “binds”.

B2: 2.11 (scFv)
scFv (VL-linker-VH): QSVLTQPPSVSAAPGQKVTISCSGSTSNIGDNYVSWYQQLPGTAPQLLIYDNTKRPSGIPDRFSGSKSGTSATLGITGLQTGDEADYYCATWDNDKWGVVFGGGTKLEVLGGGGGSGGGGSGGGGSSGGGSEVQLVESGGGLVQPGGSLRLSCAASGFTFSSYAMSWVRQAPGKGLEWVSAIRTDSKEQYYADSVKGRFTISRDNSKNTLYLQMNSLRAEDTAVYYCARDAWLDVLSDGFDYWGQGTLVTVSS
notes: One of the seven improved scFvs (group m4); The full chain is assembled from ESBA521 with its VH CDR2 exchanged; also called scFv 2.11
Turning to B2, the binding result is listed as “binds”.

B3: 265.1 (scFv)
scFv (VL-linker-VH): B2 scFv (VL-linker-VH) with R183N, T184M, D185K, S186G, K187N, E188D, Q189R
notes: as for B1
B3: the binding result is reported as “binds”.

B4: 100.2 (scFv)
scFv (VL-linker-VH): B2 scFv (VL-linker-VH) with R183K, S186G, K187N, E188H, Q189K
notes: as for B1
With B4, the binding result is “binds”.

B5: 4.12 (scFv)
scFv (VL-linker-VH): B2 scFv (VL-linker-VH) with R183N, D185R, S186G, K187Q, E188N, Q189E
notes: as for B1
For B5, the binding result was “binds”.

B6: 33.11 (scFv)
scFv (VL-linker-VH): B2 scFv (VL-linker-VH) with R183N, D185G, S186G, K187G, E188S, Q189T
notes: One of the seven improved scFvs (group m4); The full chain is assembled from ESBA521 with its VH CDR2 exchanged; also called scFv 33.11
On to B6, for which the binding result is on record as “binds”.
